For series [1], the system named is HeLa Kyoto. In words: melting temperature (median over replicates), in situ; higher = more thermally stable.
Series [2] concerns HeLa Kyoto. In words: thermal stability score vs G1/S (z-score of summed log2 fold changes over temperatures); higher = more thermally stable than in G1/S.
Series [3] has as its system HeLa Kyoto. Nature of the series: solubility change mitosis vs G1/S (difference of NP-40 vs SDS log2 ratios) (log2 ratio difference); higher = more soluble in mitosis.
For series [4], the system named is HeLa Kyoto. In words: solubility in G1/S (NP-40 vs SDS abundance) (log2 ratio); higher = more soluble. The note with it: cell cycle stage: G1/S.
The mark [5] stands for this setting: cell cycle stage: early G1 (4.5 h after nocodazole release).
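Throughout, for melting temperature (median over replicates), in situ: HeLa Kyoto cells synchronized by double thymidine or nocodazole block, proteins quantified by TMT10plex mass spectrometry, three independent biological replicates.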
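Throughout, for solubility change mitosis vs G1/S (difference of NP-40 vs SDS log2 ratios): synchronized HeLa Kyoto cells (double thymidine block for G1/S, nocodazole release for mitosis), protein amounts in NP-40 versus SDS lysates quantified by mass spectrometry, three biological replicates.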
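Throughout, for solubility in G1/S (NP-40 vs SDS abundance): HeLa Kyoto cells arrested at G1/S by double thymidine block, proteins quantified by TMT10plex mass spectrometry in mild NP-40 versus SDS extracts, three biological replicates.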
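Throughout, for thermal stability score vs G1/S (z-score of summed log2 fold changes over temperatures): synchronized HeLa Kyoto cells, proteins quantified by TMT10plex mass spectrometry, three biological replicates, mitosis taken 0.5 h after nocodazole release, G1/S directly after double thymidine block.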

Take WBSCR16: the melting temperature was 53.6 °C in the series with HeLa Kyoto [1] (cell cycle stage: G1/S) and 52.7 °C in the series on HeLa Kyoto [1] (cell cycle stage: mitosis). The thermal stability score in the series on HeLa Kyoto [2] (setting [5]) was 0.481; in the series with HeLa Kyoto [2] (cell cycle stage: mitosis), -0.564. Moreover, the “solubility change mitosis (log2)” value in the series with HeLa Kyoto [3] was -0.168. The “solubility in G1/S (log2)” value in the series with HeLa Kyoto [4] was -0.259.
Take “MAATGANAEKAESHNDCPVRLLNPNIAKMKEDILYHFNLTTSRHNFPALFGDVKFVCVGGSPSRMKAFIRCVGAELGLDCPGRDYPNICAGTDRYAMYKVGPVLSVSHGMGIPSISIMLHELIKLLYYARCSNVTIIRIGTSGGIGLEPGTVVITEQAVDTCFKAEFEQIVLGKRVIRKTDLNKKLVQELLLCSAELSEFTTVVGNTMCTLDFYEGQGRLDGALCSYTEKDKQAYLEAAYAAGVRNIEMESSVFAAMCSACGLQAAVVCVTLLNRLEGDQISSPRNVLSEYQQRPQRLVSYFIKKKLSKA [UPP1]”: the melting temperature was determined as 56.8 °C in the series with HeLa Kyoto [1] (cell cycle stage: G1/S) and 56.3 °C with HeLa Kyoto [1] (cell cycle stage: mitosis). Further, the results for the thermal stability score with HeLa Kyoto [2] (setting [5]) and in the series on HeLa Kyoto [2] (cell cycle stage: mitosis) were -4.67 and -3.64, respectively. For the same substance, in the series on HeLa Kyoto [3], the “solubility change mitosis (log2)” value was -0.279. For the same substance, in the series with HeLa Kyoto [4], the “solubility in G1/S (log2)” value was 0.102.
Regarding DHRS1, the values for the melting temperature in the series with HeLa Kyoto [1] (cell cycle stage: G1/S) and with HeLa Kyoto [1] (cell cycle stage: mitosis) were 50.7 °C and 51 °C, respectively. The thermal stability score amounted to 0.897 in the series with HeLa Kyoto [2] (setting [5]) and 0.418 in the series on HeLa Kyoto [2] (cell cycle stage: mitosis). Moreover, the “solubility change mitosis (log2)” value in the series on HeLa Kyoto [3] stood at 0.0211. Besides, in the series on HeLa Kyoto [4], the “solubility in G1/S (log2)” value was determined as 0.111.
Take “MSEADGLRQRRPLRPQVVTDDDGQAPEAKDGSSFSGRVFRVTFLMLAVSLTVPLLGAMMLLESPIDPQPLSFKEPPLLLGVLHPNTKLRQAERLFENQLVGPESIAHIGDVMFTGTADGRVVKLENGEIETIARFGSGPCKTRDDEPVCGRPLGIRAGPNGTLFVADAYKGLFEVNPWKREVKLLLSSETPIEGKNMSFVNDLTVTQDGRKIYFTDSSSKWQRRDYLLLVMEGTDDGRLLEYDTVTREVKVLLDQLRFPNGVQLSPAEDFVLVAETTMARIRRVYVSGLMKGGADLFVENMPGFPDNIRPSSSGGYWVGMSTIRPNPGFSMLDFLSERPWIKRMIFKLFSQETVMKFVPRYSLVLELSDSGAFRRSLHDPDGLVATYISEVHEHDGHLYLGSFRSPFLCRLSLQAV [APMAP]”: the melting temperature with HeLa Kyoto [1] (cell cycle stage: G1/S) was found to be 56.2 °C; in the series on HeLa Kyoto [1] (cell cycle stage: mitosis), 57.2 °C. Moreover, the thermal stability score turned out to be 0.325 in the series on HeLa Kyoto [2] (setting [5]) and 0.806 with HeLa Kyoto [2] (cell cycle stage: mitosis). For the same substance, the “solubility change mitosis (log2)” value in the series with HeLa Kyoto [3] was -0.116. In addition, in the series on HeLa Kyoto [4], the “solubility in G1/S (log2)” value amounted to 0.164.
Consider “MSLRKQTPSDFLKQIIGRPVVVKLNSGVDYRGVLACLDGYMNIALEQTEEYVNGQLKNKYGDAFIRGNNVLYISTQKRRM [LSM6]”, for which the results for the melting temperature with HeLa Kyoto [1] (cell cycle stage: G1/S) and with HeLa Kyoto [1] (cell cycle stage: mitosis) were 57.7 °C and 54 °C, respectively. Moreover, the thermal stability score in the series with HeLa Kyoto [2] (setting [5]) was -1.66; in the series on HeLa Kyoto [2] (cell cycle stage: mitosis) it was -2.63. Also, the “solubility change mitosis (log2)” value with HeLa Kyoto [3] worked out at 0.276. In addition, the “solubility in G1/S (log2)” value in the series with HeLa Kyoto [4] amounted to 0.0787.
With “MAASMFYGRLVAVATLRNHRPRTAQRAAAQVLGSSGLFNNHGLQVQQQQQRNLSLHEYMSMELLQEAGVSVPKGYVAKSPDEAYAIAKKLGSKDVVIKAQVLAGGRGKGTFESGLKGGVKIVFSPEEAKAVSSQMIGKKLFTKQTGEKGRICNQVLVCERKYPRREYYFAITMERSFQGPVLIGSSHGGVNIEDVAAESPEAIIKEPIDIEEGIKKEQALQLAQKMGFPPNIVESAAENMVKLYSLFLKYDATMIEINPMVEDSDGAVLCMDAKINFDSNSAYRQKKIFDLQDWTQEDERDKDAAKANLNYIGLDGNIGCLVNGAGLAMATMDIIKLHGGTPANFLDVGGGATVHQVTEAFKLITSDKKVLAILVNIFGGIMRCDVIAQGIVMAVKDLEIKIPVVVRLQGTRVDDAKALIADSGLKILACDDLDEAARMVVKLSEIVTLAKQAHVDVKFQLPI [SUCLA2]”, the melting temperature in the series on HeLa Kyoto [1] (cell cycle stage: G1/S) is 49.7 °C; with HeLa Kyoto [1] (cell cycle stage: mitosis), 49.8 °C. Besides, the thermal stability score was -0.13 in the series with HeLa Kyoto [2] (setting [5]) and 1.1 in the series with HeLa Kyoto [2] (cell cycle stage: mitosis). Also, the “solubility change mitosis (log2)” value in the series on HeLa Kyoto [3] was -0.0729. Also, in the series with HeLa Kyoto [4], the “solubility in G1/S (log2)” value was determined as 0.0965.
In the case of “MAFWAGGSPSVVDYFPSEDFYRCGYCKNESGSRSNGMWAHSMTVQDYQDLIDRGWRRSGKYVYKPVMNQTCCPQYTIRCRPLQFQPSKSHKKVLKKMLKFLAKGEVPKGSCEDEPMDSTMDDAVAGDFALINKLDIQCDLKTLSDDIKESLESEGKNSKKEEPQELLQSQDFVGEKLGSGEPSHSVKVHTVPKPGKGADLSKPPCRKAKEIRKERKRLKLMQQNPAGELEGFQAQGHPPSLFPPKAKSNQPKSLEDLIFESLPENASHKLEVRVVRSSPPSSQFKATLLESYQVYKRYQMVIHKNPPDTPTESQFTRFLCSSPLEAETPPNGPDCGYGSFHQQYWLDGKIIAVGVIDILPNCVSSVYLYYDPDYSFLSLGVYSALREIAFTRQLHEKTSQLSYYYMGFYIHSCPKMKYKGQYRPSDLLCPETYVWVPIEQCLPSLENSKYCRFNQDPEAVDEDRSTEPDRLQVFHKRAIMPYGVYKKQQKDPSEEAAVLQYASLVGQKCSERMLLFRN [ATE1]”, the values for the melting temperature in the series with HeLa Kyoto [1] (cell cycle stage: G1/S) and in the series with HeLa Kyoto [1] (cell cycle stage: mitosis) were 51 °C and 50.8 °C, respectively. For the same substance, the thermal stability score worked out at 0.0147 with HeLa Kyoto [2] (setting [5]) and 0.195 in the series with HeLa Kyoto [2] (cell cycle stage: mitosis). Besides, the “solubility change mitosis (log2)” value in the series with HeLa Kyoto [3] was -0.352. In addition, in the series on HeLa Kyoto [4], the “solubility in G1/S (log2)” value was 0.211.

Values taken from the supplement of paper PMC5998384.
